{"source": "FireProtDB (doi:10.1110/ps.041111405)", "details": "Homo sapiens; pH 7; 37 °C; GdnHCl; Fluorescence; Sodium phosphate 10 mM; transition: 3; whole UniProt chain shown"}
{"protein": "Gamma-crystallin D wild type, P07320 (protein) MGKITLYEDRGFQGRHYECSSDHPNLQPYLSRCNSARVDSGCWMLYEQPNYSGLQYFLRRGDYADHQQWMGLSDSVRSCRLIPHSGSHRIRLYEREDYRGQMIEFTEDCSCLQDRFRFNEIHSLNVLEGSWVLYELSNYRGRQYLLMPGDYRRYQDWGATNARVGSLRRVIDFS", "values": [{"measurement": "denaturant m value", "result": 3.1, "unit": "kcal/mol/M"}, {"measurement": "denaturant midpoint (higher = more stable)", "result": 2.8, "unit": "M"}, {"measurement": "unfolding free energy", "result": 8.9, "unit": "kcal/mol"}]}
